Patent publication US20250034594A1, “RNA-GUIDED GENOME RECOMBINEERING AT KILOBASE SCALE” (THE BOARD OF TRUSTEES OF THE LELAND STANFORD JUNIOR …, priority 2021, published 2025)

B1: SSAP_233: SEQ ID NO: 402; Actinoplanes italicus (protein, listed as Actinoplanes italicus)
chain: PETIANAVAQRDQSPTALVADYRNDFAAVLPSHLPPATFVRLAQGVLRRDQNLMRTAMNNPGSLMTAMLDCARLGHEPGTPAYYFVPIKGAIEGWEGYRGVIERIYRAGAVQSVRAEVVRENDFYEYEEGMPHPIHRYERFASPEQRGPLLGVWAYAVMLDGGMSRPVEMGREEVLAHRDMNPSNNRSDSPWKKWERSMWLKCAVHELEKWVPSSTEYRREIARMSAPQPAAAAAPVTYVPPQVGQRDAIEGEVAEDWPEPAEVPGGAQ
B2: SSAP_146: SEQ ID NO: 315; Mobilisporobacter senegalensis (protein, listed as Mobilisporobacter senegalensis)
chain: KDIKSALEKKVDKQDVKLTKSMSITDMIKALEPEIKKALPSVITPERFTRMALSAVNNTPKLAECSQMSFLAALMNAAQLGLEPNTSLGQAYLIPYQNKGKLECQFQLGFKGMIDLVYRNEKVQTIQAHCVYEEDYFEYELGLDSKLAHKPALANRGKMILVYAFFKLENGGFGFEVMSKEDIDIHALKYSKGYSSQYSPWKSNYEDMAKKTVIKKVLKYAPLKIDFQRAISVDETVKAEISIDMSEVQNEEIIDGQCTDVGEIEEK
B3: SSAP_269: SEQ ID NO: 438; Candidatus Parcubacteria bacterium (protein)
chain: TEYKRPQQPEQTKMLSAKLNQAGAPNKVSSFDVQLRDWFKKHSRKMQTLAGSKEEANKIITSLIFVAQRNPKLMTCTMESIGECLMQSAQLKLYPGPLQECAYVPFGNRATFMPQYQGLCKLAYNSGVVRSIATEVVYANDLFEFELGTNAYLRHVPTLSDNRGERIAAWCVVKTTHGEVIIVKPISFIEGIRKRSPAGNKKDSPWNTSDDDYDAMARKTVLKQALKTIPKSSDLAAAIQVDNAVESGSVDNVVTHIEPVTDPTPEETKE
modifications: Candidatus Parcubacteria bacterium
B4: SSAP_241: SEQ ID NO: 410; Antribacter gilvus (protein, listed as Antribacter gilvus)
chain: SADVVIRQHATELTSVLPSHLAEKGDGWLNAAVAAVRKDRNLWNAANSDPGAVMNALAEAARLGLQPGSKEYYLTVRGGKVLGIVGYQGEIELMYRAGAVSSVIVEPVFERDGFEYTPGVDDRPKHRIDWDADDRGPIRLAYAYAVMKDGAVSKVVVVNKTRIRRAKDASATAGKSHSPWTSDEVAMWMKTAAHDLAKWVPTSAEYIREQLRAVKEVEAEPARASDPRPEPVHIVEAQILDEDPFPNAPEDGAA
B5: SSAP_91: SEQ ID NO: 260; Proteus mirabilis (protein, listed as Proteus mirabilis)
chain: SNPPLAQADLQKTQGTEVKTKTKDQQLIHFINQPSMKTQLAAALPRHMTPDRMIRIVTTEIRKTPALANCDMQSFIGAVVQCSQLGLEPGNALGHAYLLPFGNGKAKSGQSNVQLIIGYRGMIDLARRSNQIISISARTVRQGDSFHFEYGLNENLTHVPGENEDSPITHVYAVARLKDGGVQFEVMTHNQIEKVRASSKAGQNGPWVSHWEEMAKKTVIRRLFKYLPVSIEMQKAVILDEKAEANVDQENASVFEGEFEEVGSNGN
B6: SSAP_303: SEQ ID NO: 472; Paenibacillus sp. BK033 (protein, listed as Paenibacillus sp.)
chain: AANTQLITIHNNLEKLIEAKKDAMPQGFNKTRFIQNCMTVLQDTYGIEKCEPTTVARTLLKGAFLGLDFFNKECYAIPYGASMNFQTDYKGERKLAKKYSVRKVKDIYAKLVRAGDVFEENITDGQQTIQFAPVPFNNGDIVGAFAVVLFHDGGMLYETMSIAEMEHIKENYSKKSKDTGKFSKAWEVSTGEMYKKTVLRRLCKNIELDFDTIEQARAFEDAADVDFNKKTAPQQTSPLNVVEAEYEVVNDGSATEAQSE
B7: SSAP_114: SEQ ID NO: 283; Methylomonas rhizoryzae (protein, listed as Methylomonas rhizoryzae)
chain: SELLSALNAPETQKPQTLPAMLKQHQPRFKAIAPRDVDVTRFSAALMADVRSNQKLAECNPMTVLGAFIRSTQLGLEPGSQLGQAYFVPFKGECQLVIGYRGMIELAYRSGKVASISARTVYENDVFEWELGTDERITHKPATGDRGALVAVYAMAKLTTGGIHFEVLDLAEIEKAKRASKSSSFGPWKDHFEEMAKKTAIRRLFKYLPVGTDLTRAVALDEKAESGSQQNDIEAETVLDGEFYPAGGGNDG
B8: SSAP_77: SEQ ID NO: 246 (protein)
chain: TNNQLVEAKGDFLTNPQLLNSGIIRKYLDPQGKASDEELAYFIAQAKAQNLNPFTKEIYFIKYGTQPAQIVTAKSAFEKKADSHPQFDGKEAGVIYLLDGEIKYSKGAFIPKGAEILGGWAKVYRKDRTYPTETEVSFEEYDNSKIRARVKELTQQGKDVTYPVMNSYGKPIGENNWDTMPCVMIRKVALVSAYREAFPAELGASYEADEIQLDNTPKDITPQENREDVIARKMAQIEQFNKEQAHTDPEPTQTEEPIQGELLDGELEY
B9: SSAP_66: SEQ ID NO: 235 (protein)
chain: TNQLAHKDFFNTPAVKQKFQEVLNGNERQFTASLLSIVNNNKLLARASNTSIMTAAMKAAVLNLPIEPSLGFAYIVPYGQDAQFQLGYKGLIQLAIRSGQFKAINSGKVYKAQFKSYDPLFETLDIDFTQPEDEVYGYFATFELVNGFKKLTFWTKEQAESHGKRFSKTYAKGPWSTDFDAMAQKTVLKSILSKYAPLSTEMQEGLISDNQTEEVETDPIDVTPKNEDTQTLLSDLMSDEAESETEKV
B10: SSAP_279: SEQ ID NO: 448; Dorea sp. 42_8 (protein, listed as Dorea sp.)
chain: AVNNSLAKRDQSMKLSVYLQNDAVKKQINQVVGGKNGTRFISSIVSAVQSTPALQECTSPSIVNAALLGEALNLSPSPQLGQFYMVPFDNRKKGCKEAQFQLGYKGYIQLAERSGYYKKLNVLAIKEGELIRYDPLDEEIEVELIDDDVIREETPAMGYYAMFEYENGFCIQQKWRSEDFGTFRAGQNSGKGSLEVFFFLVQRF
B11: SSAP_83: SEQ ID NO: 252 (protein)
chain: TLQAVCPTQDKAVESQLDQTKFELIKRTICKGTTDDEFQLFIHACKRTGLDPFMRQIFAVKRWDSAERREVMTIQTGIDGYRLIADRTGRYAPGRDAEFGYDAHGGLRWAKAYVKKMTPDGHWHEISATAFWTEYVQTTKDGRPTVFWMKKGHVMLSKCAEALALRKTFPAELSGIYTQEEMAQTMSLPDTKGDSQTIGSDKAYEIERSIDNDPEFKTQLLTRLQRAFGCKSFSDLPQDQFKNVKKVIENHQIKEKIA
B12: SSAP_118: SEQ ID NO: 287; Kribbella albertanoniae (protein, listed as Kribbella albertanoniae)
chain: ATADSVREELARSKEVERTQPKASNADNVIGLINRSLPEIAKALPGHVKPERIARIATTAVRVTPKLADCTQASFLGALLTAAQLGLEPNTPTGEAYLLPFGRNVQLIIGYRGYIKLANQSGQVRNIMAMTVYENDHFDYKYGSNPFLEHTPTLGQDPGPVKCWYACATFTNGGTNFVVLDKFKVEGYRARARSKDDGPWVTDYDAMARKTCIRRLAPYLPMSVELAQAMQVDEEVTAFTPGVSDPEVLATLAGVDTGTGEVQQ
B13: SSAP_124: SEQ ID NO: 293; Clostridium sp. AM58-1XD (protein, listed as Clostridium sp.)
chain: SVDVKNELEKRAAGTVNPAVKLTKNMTIVDMVRALEPEIKRALPTILTPERFMRMALSAINNTPELADCTPMSFIAALMNAAQLGMEPNTPLGQAYLIPYKNKGTLECQFQIGYKGLIDLAYRTGLIQVIQAQTVREFDSFEYQYGLDSRLTHRPGDGERGEITYIYGLFKLTNGGYGFEVSNKADMDAFAEKYSKSFGSRFSPWKENYEDMAKKTVIKRALKYAPVSSDFQKALSMDETIKSELSIDMSEIRNECQVEASGQEGAA
B14: SSAP_177: SEQ ID NO: 346; Geomicrobium sp. JCM 19055 (protein, listed as Geomicrobium sp.)
chain: GYKGMIDLARRSGHIKSIYAHTVHANDEFEYELGLEPKLVHKPATGDRGNMEYAYAVAHFVDGGYQFEVFSHHDIEQVKKRSKAGNFGPWKTDYEEMAKKTVVRRMFKYLPISIEIQQHASQDETVRRDITEEAEKVDNIIDLPNYEDPNNIDVPDEEQDEQKDEKQKQQGSAEEIALDFK

Experiments:
Assay type in all cases: cell-based
[1] = system: gene editing with Cas9 and dCas9; assay: Screen of 322 new SSAP proteins, activity across all experiments (Cas9 and dCas9, Table 5); set-up: scale not given here
Summary of the method: (§1)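 Synthetic SSAP candidates, identified computationally, were tested in editing screens using both Cas9 and dCas9.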

gene editing with dCas9 = assay: Screen of 322 new SSAP proteins, gene editing activity with dCas9 (Table 5); set-up: dCas9 with SSAP activity: scale not given here
Summary of the method: as §1

gene editing with Cas9 = assay: Screen of 322 new SSAP proteins, gene editing activity with Cas9 (Table 5); set-up: Cas9 with SSAP activity: scale not given here
Summary of the method: as §1

| Molecule | Activity across all experiments [1] | dCas9 with SSAP activity (gene editing with dCas9) | dCas9 with SSAP activity (normalized) (gene editing with dCas9) | Cas9 with SSAP activity (gene editing with Cas9) | Cas9 with SSAP activity (normalized) (gene editing with Cas9) |
| --- | --- | --- | --- | --- | --- |
| B1 | −1.424 | −0.220 | −0.063 | −2.628 | −0.424 |
| B2 | −5.040 | −9.454 | −1.210 | −0.626 | −2.428 |
| B3 | −8.768 | −9.789 |  | −7.746 | −2.190 |
| B4 | −5.085 | −9.530 | −2.720 | −0.640 | −3.561 |
| B5 | 0.114 | −0.407 | −0.170 | 0.635 | 0.826 |
| B6 | −3.683 | −9.053 |  | 1.686 | 2.052 |
| B7 | −9.340 | −10.925 |  | −7.755 | −1.412 |
| B8 | −10.167 | −10.167 |  | −10.167 |  |
| B9 | 0.082 | −0.205 | −0.040 | 0.370 | 0.407 |
| B10 | −6.593 | −10.362 | −2.349 | −2.825 | −3.398 |
| B11 | −5.182 | −9.459 | −1.391 | −0.905 | −1.189 |
| B12 | −9.467 | −9.467 |  | −9.467 |  |
| B13 | −7.244 | −8.790 |  | −5.698 | −1.064 |
| B14 | −0.236 | −0.179 | −0.069 | −0.293 | −0.508 |
